Assay: label from the status in PepcDB records

Sequence	protein production
MYLTVTPLSIVALTTAPPYFDTNGSISVPPPPNVIRSGLYESITLEYHKYTIKYCLTLITQTILFFLIVVCSMKVVIFGGTGLIGRAIYSSLPHDFYIVSRSAKGQEGQAHIIGLDEIDKIKECDVVINLSGYSIASKRWNRKVKEEIVRSRIDTTRLVVNFIRNLEKKPSAFLSGSAIGFYGHNTNKELTEEDPFGSGFLADLARSWEEEAMQADGICRTVLLRTANFLSPKGGFLSALINPKSKNVMYFGDGRQPVSWMHYADYVKAVEFVIENASIAGPVNMSSPQPVTFKEFAEAFSKSLGSHIRSIPEFLGKIALGSEMYRELMSGQKVIPKKLIQAGFKFDFPDINTAASSIASLMK	failed
MYMILELLNIIGIIAFTISGSLKGTNKGLDIFGVVTLGVITSYAGGIIADILLGIYPPQILKELNYLLLSVGISIFVFYFYKWLQTNPIKMIIAISDAVGLSTFATLGASLAYSYGLNPISVGLIAAIVGTGGGVIRDVLVNEIPMVLTKEIYATAALLSGFIYYFTTPYLHHDSLFVAFLGSFLLRILSIKYNFNLPKREDNKS	failed
MYMKHIENGTRIEGEYIKNKVIQYNMSILTDEVKQPMEEVSLVVKNEEGKIFGGVTGTMYFYHLHIDFLWVDESVRHDGYGSQLLHEIEGIAKEKGCRLILLDSFSFQAPEFYKKHGYREYGVVEDHPKGHSQHFFEKRL	not failed
MYNPVGVAAIGLGRWAYVMADAYTKSEKLKLVTCYSRTEDKREKFGKRYNCAGDATMEALLAREDVEMVIITVPNDKHAEVIEQCARSGKHIYVEKPISVSLDHAQRIDQVIKETGVKFLCGHSSRRLGALRKMKEMIDTKEIGEVSSIEAVFSNERGLELKKGNWRGEPATAPGGPLTQLGVHQIDNLQFLLGPVARVFNFGKPMYTEVENITVNQTLLEFEDGKQAYLGTNWACPGVFSINVYGTKANLFYQLDFSWWSNSDVTDEHSTLIKREFASMSDDPDNRILRDVKVDFESVDHLRVEVEEVADVIRNGGETEIGAEASLRNLAVVLAAVKSVHEKRPVEIAEIIG	not failed
MYNRPNWQRRRRSLLVLVLGLLFLGFLIQPSYQWTKTNVAAMAGRHDSQMSPIIMIPGSSATQNRFDTLVKQLNKADHRRHSLIKLTVMTDDTIKMTGSLRARDNEPIIVVGFQNNRDGYDNIKHQARWFSLAFKKLAAKYQFNNFKAIGHSNGGLIYTYYFEHYFNRDDIKVKRIMTIGSPYNFSEANLNHKTQMLADFIKYRDRLPKSATMYSVAGTENYDSDGLVPARSVEAGKYIYQGQVKHFTEITVTGTNAQHSDLPQNAQIVTLIRTYMLDKPKQTRKGLVSTGTVE	failed
MYNSATVIYQNLLKSTPKKASEYYYYLGDICWRKEKTDSAKYYFMEGIKTDETYAMNYVGIGIITMKSNATEGQRSFDKALQMTSQKNSQVLNAIGEYYILEADKAELPKGIALLKKSTEIDAKNAMSWILLGDAYGKQAEGSKQAESYGKAANLFHSVPLLKMKYGKMYAAARNKDLSIKYYNEGLAADPTYGPIYRELGDLYNRFRQYDLAIQNYKKYLTYIDSNDDVEFRYADFLFKNNNYAEAIEVFNKLEAKKYNSPYIYNRRAVCYYELAKYDLAQKDIETYFSKVNATKAKSADFEYYGKILMKKGQDSLAIQQYQAAVDRDTTRLDMYGQIGSYFYNKGNFPLAIQYMSKQIRPTTTDPKVFYELGQAYYYNKEYVKADSSFVKVLELKPNIYIGYLWRARANAAQDPDTKQGLAKPYYEKLIEVCAPGGAKYKDELIEANEYIAYYYTINRDKVKADAAWKNILALDPTNKKAIDGLKMK	failed
MYPDLVHLGGADKYFEEILEIVNKIKLFGDFSNEEVRYLCSYMQCYAAPRDCQLLTEGDPGDYLLLILTGEVNVIKDIPNKGIQTIAKVGAGAIIGEMSMIDGMPRSASCVASLPTDFAVLSRDALYQLLANMPKLGNKVLIRLLQLLTARFRESYDRILPKTLGELI	not failed
MYPLAFAKEGEEVIVKKIDAGCGAMQRLVSMGINIGSKLKVIRNQNGPVIISTKGSNIAIGRGLAMKIMVEDAEYGGENEKLLEHHHHHH	failed
MYRNDPILPTFALILAAGLFYAAYLDGRHIARLLGHVPEELSVGQIGLMAFGAVLLLYGLMGLVSYWLEGIELRPGRHFPTPSTAPVAAGVILVLLLTALSGFFVRLLVYSAQTGHNPTWLQGLIFGSISLVVAALFGIYRRFFGREEVITEEEKSEFPW	failed
MYSDKKNILQLVALLKAHGVRKIVLCPGSRNAAIVHTLANIEDFTCYSVTDERSAGFFAIGLSLQGGGPAAVCCTSGSALLNLHPAVAEAFYQQVPLIVISADRPAAWIGQMDGQTLPQPHVFGTLVKMSVNLPEVHTEEDEWFCNRLINEAILETTHHGKGPVHINVPISEPIYRFTAKTLPEVRVITRYQGL	failed
MYTECAYITVINNKARLFFMNMKTSFIAAAVALATVYSFSVSAVQKDITVTANIDSTLELLQADGSSLPSTMKLDFMPGKGLVHKSLQTRLYSNDQTKSVNVKLLNAPQLINVLDPTKTIDMEVTLGGRSLTTTNSVLEAKTLFPDGKTGDASALLNLDIGQKAGAALQNLPAGEYSGLVSLVISQAVTAGLEHHHHHH	failed
MYTKQHTIKAPVKVSGVGLHTGAQVNLTFVPAPINHGILFKRVDLPDQPVVECDVDNVVDVSRGTSIEKNGARINTVEHALAALVGLQIDNILIELDGPEIPIMDGSSLPFIEAINAIGLEEQNALRNFFEVPHGIFFQDAEKNIELAALPLDDYRVTVMVDYNSPVLGSQHATLNNINQFEKEIASCRTFCFLHELEMLHKQNLIKGGDLNNAIVIVDRIVKDDELDSLAKLFGKDKVEVKKEGILNNIELRYKNEPARHKLLDVVGDLALVGRPLKAQIMAARPGHASNVAFAKKLKRVMMDSRQKAPHYDITQPSVLDVNQIYKLLPHRYPFKLVDKIVHLDENMIIGVKNVTINEPFFEGHFPGNPVMPGVLQIEAMAQTGGIFVMQSVPDPENYWTYFLSIESAKFRRMVVPGDTLVFKCELTAPIKRGIAKMQGQAYVGGNLVCEASLTASIVKKK	failed
MYVFFSKDYLSKQEQSIWEQSFLRGNLMKAVVIGAGEVGYHIAKFLSLTHDVIVIENDEDALRRADELDVQVVEGNGANADILASVLPDVDILVAVTGVDEVNIVACMTAKLILRAHPGWKETKTIARVSNPDYIDVPVTSRAQVGVDIMICPELALASEVAEVLSNPSAIDAEMFAGGKVQMMEFAIRPDNRLVGKRMQDIELEDCCIVSAIFRNNDIIIPHGDDFIKANDHMVVVGKPRAMADLENVFGNEGPHRNRILLIGCGIVGFYLAKIIDKDENADLKVIEYRKSRCIEVAEMLENALILNGDGTDVNLLREENIEDMDVVIAVTDNDEKNLLCSLLAKQMGAKKVIARADRSDYVPLFEMVGIDIAVSPREATVNEVLKLTMGKGIEALATIEGEKAEIIEYTASGQSKIVGKPLSKIKFPKGAIVTMVVHDDDVIIPRGEFIIREGDRVIIFALSSAVRSVEKLFK	failed
MYVIIMGAGRIGTLVAKMLENSGHDVAIIEMNKDRARAVSDIVSGLVIEGDATDQNILESANVRNADAFVALTGKDDANILACILAKHLNPRIMTILRITDPRKKKIFEEVKDLKKYFDVVVSPEDIAANYIFRVVITPGFDRVLLPREGAEIIQFHIDENSKVAGKAVKDLNLPRDSLIIAIYDEKGNLIIPSGETILPKRGTVVVFAKDSALKEIKKIMEEKVEESEE	failed
MYVLIGGAGLVGLTLAQKLVELGHTVAIIDVDHTACRYAREQVGAMAFEGSAVSTEVLLEAGIRKADALAAVLRNDALNLAMVMLAKHYGVSHILSRMRHADFAQPLRLAGANHVISTVELSVSTMVNAIEYPQVESMMHFEQGQIEVLKISIPNSCYVANRSLAEIAQDSRFPSGSLIIGYQPHPHEDLVIPNGSTVLESGSTILIATKPGSLHQVIDFIEGCKLEHHHHHH	not failed
MYYGFDIGGTKIALGVFDSTRRLQWEKRVPTPHTSYSAFLDAVCELVEEADQRFGVKGSVGIGIPGMPETEDGTLYAANVPAASGKPLRADLSARLDRDVRLDNDANCFALSEAWDDEFTQYPLVMGLILGTGVGGGLVLNGKPITGQSYITGEFGHMRLPVDALTLMGFDFPLRRCGCGQMGCIENYLSGRGFAWLYQHYYDQSLQAPEIIALWEQGDEQAHAHVERYLDLLAVCLGNILTIVDPDLLVIGGGLSNFTAITTQLAERLPRHLLPVARAPRIERARHGDAGGMRGAAFLHLTD	not failed
NDPDADRFAVAVRKDDGEYQMLTGDQVGVLFGHYLLSHASADQRLVGTTIVSSSLLSKIANGFGVESYTTLTGFKWLMNVGIAQSQPDNQFLFAYEEALGYTVGNMVWDKDGLSALVAFAQLTAELAAKGQTIWDRLEQIYREQGFHLN	failed
NFDTNMFKLENYVKEKYSLESLEIIPNEFDDTPTILSERISQVAAGVLRNLIDDNMKIGFSWGKSLSNLVDLIHSKSVRNVHFYPLAGGPSHIHAKYHVNTLIYEMSRKFHGECTFMNATIVQENKLLADGILQSRYFENLKNSWKDLDIAVVGIGDFSNKGKHQWLDMLTEDDFKELTKVKTVGEICCRFFDSKGKEVYENLQERTIAISLEDLKNIPQSLAVAYGDTKVSSILSVLRANLVNHLITDKNTILKVLEEDGDL	not failed
NFSNRVQDVIRLSREEALRLGHDYIGTEHLLLGLIREGEGIGAKILKNLKVDLFQLKQKIEENTHPKVPATQMGNVPLTKQAEKVLKITYLEAKICKSTIIGTEHLLLSILKGDDNIAAQILEQFGVTYDQVRDELMTITT	not failed
NFTLAITEAVSEKEIYNKLAENLPKILQADRGSVTLITENKDEFEVFSLQGPEGMLSIGKYFSVDNSLAGLAVQQEKTIISKLNADRIEIDAQQLYQQDLLSIMNSPLQFSDRIIGTVNIGSYKENAYDSTSLELLTLVSTLVSNYLERQHLLEQAQIGVKQYKTYSKQLESLNHVAEELCAATNE	failed
NGKLFLVGTPIGNLKDITLRALETLQNCDVIAAEDTRQSLKLLNHFDIKKPLISYHKFNENNRSSELMDMVREGKKVALVTDAGMPGISDPGSVIVEKFIENNLEFEVIPG	not failed
NIGSAVPRGELVLAMEKIGKLLQERGGSVVIRGHTDGRQFKGEANDNWRLSMDRAHSAYYMLVRGGLSEERVKQVSGFADRRLQVPSNPLADANRRIEILLEADR	failed
NIPEIENANLKPALKDSVLPDGFYSTTNHPTHVKVNDEWIEVANPKMDAVIVVYPEEKRAETKVIRKVKKGDFVLIGHNGIRVMPPEKSREAGQLFEFMNSEVSSEKPKEAIIKRIAKEMHEIREEYKKTGTGGIAIVGGPAIIHTGGGPALAKMVELGYIQAILAGNALATHDIESALYGTSLGVNIKTAKPVTGGHKHHIYAINAINDAGNIKNAVESGVLKEGIMYQCIKNNIPYVLAGSIRDDGPIPDVITDSMVAQDKMRTTVMDKKMVIMLSTLLHSVATGNLMPSYIKTVCVDIQPSTVTKLMDRGTSQAIGVVTDVGVFLVLLLKELERLELQE	not failed
NKSYRSTEQITNFAKALLPDGDQIQAFTRKGDLPKVMIRYGEDAALSSLRSEVEHQLKATNTVAVLTKDLAESKQVYQYLKRYTVTTLMADSDRTMPQGVIVMPIYLAKGLEFDAVVAYDVSATNYPDADSVGILYTIASRAMHHLTLLSIGDVSPLIAQLDPTLFTIEHQVRV	not failed
NKYNKIANELIKIIGEDNIISITHCATRLRVMVKDREIINDKKVEKVDEVKGVFFTSGQYQIILGTGIVNKVYAEVEKMGLKTLSKKEQDELVKNNE	not failed
NLDPQRVEQEMILLAQRIDVAEELDRLQMHVKETTNILKKGGAVGRKLDFMMQELNRESNTLASKSINADITASAVELKVLIEQMREQIQNLE	failed
NLNAIQNFGAMDILCTDKTGTLTCDKIVLEKYINADGSDDNSKRILRHAYFNSYFQTGLRNLMDKAILSHVRELNLEHLKDAYTKVDEIPFDFTRRRMSVVIEDRQGKRQIITKGAVEEILDVCSYAEFDREIHPLTDSLKIKAQKISEEMNRQGMRVLAVSQKSFIEKDCNFAIEDEKEMVLIGYLAFLDP	not failed

Source: a protein production outcome set (Wang et al. 2014)
